Target: T1, covalent biotinylated CCIZN17 (synthetic IZ coiled coil fused to HIV-1 …)
T1 construct: also called NHR mimetic; mimetic of the NHR trimer
Assay: BLI; biotinylated CCIZN17 (200 nM) loaded on streptavidin biosensors to 0.4 nm, Octet RED96; Fab in solution at known concentrations, 4 min association, 4 min dissociation; PBS pH 7.4 with 0.1% BSA and 0.05% Tween 20
Conditions: both partners purified

B1: D5_AR Fab (Fab, V domains shown)
VH: QVQLVQSGAEVRKPGASVKVSCKASGDTFSSYAISWVRQAPGQGLEWMGSIIPLFGTAAYAQKFQGRVTITADESTSTAYMELSSLRSEDTAIYYCARDNPTFGAADSWGKGTLVTVSS
VL: DIQMTQSPSTLSASIGDRVTITCRASEGIYHWLAWYQQKPGKAPKLLIYKASSLASGAPSRFSGSGSGTDFTLTISSLQPDDFATYYCQQYSNYPLTFGGGTKLEIK
notes: also called D5_H011_L0; source: Expi293F, transfected, purified (protein G agarose, SEC)
Binder B1 has a Kd of 1.6 nM.

— paper PMC8274607, “A Derivative of the D5 Monoclonal Antibody That Targets the gp41 N-Heptad Repeat of HIV-1 with Broad Tier-2-Neutralizing Activity” (Journal of Virology, 2021)
